Experimental data from patent US20080280832A1 (LABORATOIRES SERONO, published 2008).

Target: T1, human FSH receptor (human, UniProt P23945 18-695)
T1 sequence (looked up): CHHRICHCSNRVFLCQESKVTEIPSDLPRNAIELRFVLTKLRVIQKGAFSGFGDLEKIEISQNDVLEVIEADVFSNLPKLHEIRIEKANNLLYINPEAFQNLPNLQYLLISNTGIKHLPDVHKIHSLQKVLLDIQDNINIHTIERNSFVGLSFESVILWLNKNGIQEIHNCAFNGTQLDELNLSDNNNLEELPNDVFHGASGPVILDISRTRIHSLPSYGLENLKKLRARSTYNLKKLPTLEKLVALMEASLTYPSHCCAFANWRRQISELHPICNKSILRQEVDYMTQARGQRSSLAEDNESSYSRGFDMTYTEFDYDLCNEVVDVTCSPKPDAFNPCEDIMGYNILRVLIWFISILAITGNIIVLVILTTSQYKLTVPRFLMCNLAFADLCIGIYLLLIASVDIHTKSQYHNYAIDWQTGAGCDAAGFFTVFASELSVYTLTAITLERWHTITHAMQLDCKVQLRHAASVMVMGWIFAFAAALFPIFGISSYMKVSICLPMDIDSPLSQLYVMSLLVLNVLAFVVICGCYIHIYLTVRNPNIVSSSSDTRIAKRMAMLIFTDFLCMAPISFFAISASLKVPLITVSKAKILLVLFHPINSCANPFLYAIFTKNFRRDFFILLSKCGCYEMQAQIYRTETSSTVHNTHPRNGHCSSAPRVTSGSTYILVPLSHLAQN
Assay: cell-based or functional assay

B1: Clone 15C- α D3N/β GM1 (ligand)
chain 1: not shown
chain 2: NSCELTNITIAIEKEECRFCISINTTWCAGYCYTRDLVYKDPARPKIQKTCTFKNLTYETVRVPGCAHHADSLYTYPVATQCHCGKCDSDSTDCTVRGLGPSYCSFGEMKE
EC50 M (cAMP production in CHO-FSHR cells): 0.414 nM
